Experimental data as given in US20200157151A1, “PEPTIDE COMPOUNDS, CONJUGATE COMPOUNDS AND USES THEREOF FOR TREATING INFLAMMATORY DISEASES” (TRANSFERT PLUS, S.E.C., priority 2017, published 2020).
Square brackets hold non-standard residues; d marks the D form. Ends that are not written are not given here. Nle = CCCC[C@H](N)C(=O)O

B1: KBP-106 (peptide)
peptide: Ac-GVRAKAGVRN[Nle]FKSESY
B2: KBP-201 (peptide)
peptide: YKSLRRKAPRWDAPLRDPALRQLL
modifications: not checked

Molecular target: Human recombinant Sortilin chimera protein from R&D Systems (#3154-ST) (human), Q99523
Sequence (Q99523 78-755, change not shown): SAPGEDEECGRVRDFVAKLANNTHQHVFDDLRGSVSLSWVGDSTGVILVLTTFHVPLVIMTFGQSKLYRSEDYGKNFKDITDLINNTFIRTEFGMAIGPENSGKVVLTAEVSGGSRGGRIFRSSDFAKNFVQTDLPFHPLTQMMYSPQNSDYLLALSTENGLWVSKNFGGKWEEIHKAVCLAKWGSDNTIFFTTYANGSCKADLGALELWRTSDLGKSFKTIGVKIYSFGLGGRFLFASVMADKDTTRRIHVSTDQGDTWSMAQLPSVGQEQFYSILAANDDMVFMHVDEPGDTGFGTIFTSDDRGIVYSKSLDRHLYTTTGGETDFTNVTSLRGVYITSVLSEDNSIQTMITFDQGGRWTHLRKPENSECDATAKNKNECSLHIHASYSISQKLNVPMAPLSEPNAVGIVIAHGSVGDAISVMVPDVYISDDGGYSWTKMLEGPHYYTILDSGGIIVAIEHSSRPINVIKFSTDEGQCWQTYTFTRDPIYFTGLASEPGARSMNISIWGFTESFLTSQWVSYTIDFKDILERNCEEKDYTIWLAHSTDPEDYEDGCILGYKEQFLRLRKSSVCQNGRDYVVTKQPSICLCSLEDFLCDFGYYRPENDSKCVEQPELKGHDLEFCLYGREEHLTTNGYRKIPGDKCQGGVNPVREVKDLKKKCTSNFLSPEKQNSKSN
Assay: SPR (Biacore), Sortilin immobilized on CM5 chip, peptide injected

Binder | Kd [nM]
B1 | 46
B2 | 3.3
